Measured values published in article PMC3515676.

Legend:
Assay in all cases: purified protein
Type in all cases: biochemical, Danio rerio
[1] = system: C[C@H](CCC(=O)NCC(=O)O)[C@H]1CC[C@H]2[C@@H]3[C@H](O)C[C@@H]4C[C@H](O)CC[C@]4(C)[C@H]3CC[C@]12C; conditions: 14 μM PAP[35S], 50 mM Taps pH 8.5, 28 °C, pH 8.5
[2] = system: C[C@H](CCC(=O)O)[C@H]1CC[C@H]2[C@@H]3CC[C@@H]4C[C@H](O)CC[C@]4(C)[C@H]3CC[C@]12C; conditions: 14 μM PAP[35S], 50 mM Taps pH 8.5, 28 °C, pH 8.5
[3] = system: C[C@H](CCCO)[C@H]1CC[C@H]2[C@@H]3[C@H](O)C[C@H]4C[C@H](O)CC[C@]4(C)[C@H]3C[C@H](O)[C@]12C; conditions: 14 μM PAP[35S], 50 mM Mes pH 6.0, 28 °C, pH 6.0
[4] = system: C[C@H](CCC(=O)O)[C@H]1CC[C@H]2[C@@H]3[C@H](O)C[C@@H]4C[C@H](O)CC[C@]4(C)[C@H]3CC[C@]12C; conditions: 14 μM PAP[35S], 50 mM Taps pH 8.5, 28 °C, pH 8.5

“Zebra danio SULT3 ST2 (ZF SULT3 ST2) (Danio rerio)” showed a Km [1] of 19.89 ± 1.32 µM, a Vmax [1] of 0.00097 µmol/min/mg and a Km [2] of 6.00 ± 0.55 µM. It also gave a Vmax [2] of 0.00051 µmol/min/mg, a Km [3] of 22.36 ± 1.47 µM and a Vmax [3] of 0.00254 µmol/min/mg. For the same substance, the Km [4] was 21.75 ± 2.74 µM and the Vmax [4] was 0.00075 µmol/min/mg.
